Results taken from doi:10.1101/2023.11.22.568361.

B1: T10 (ssDNA)
DNA: TTTTTTTTTT
B2: T40 (ssDNA)
DNA: TTTTTTTTTTTTTTTTTTTTTTTTTTTTTTTTTTTTTTTT

Key:
N-protein WT (NWT) = N-protein WT (NWT) (SARS-CoV-2, UniProt P0DTC9 1-419); test: SV-AUC; […], pH 7.4; […], pH 7.4; […], pH 7.50; temperature not given; conditions: protein: recombinant; tags: N-terminal 6xHis-TEV, cleaved; chain copies: 2; single strand
CTD = CTD (SARS-CoV-2, UniProt P0DTC9 247-364); test: as above; conditions: protein: recombinant; tags: N-terminal 6xHis-TEV, cleaved; chain copies: 2; single strand

Binder | binding result (N-protein WT (NWT)) | binding result (CTD)
B1 | binds | –
B2 | binds | binds
